Experimental data taken from the supplement of paper PMC11246515.
± gives the standard deviation of the averaged measurements.

Experiment: total protein half-life in vivo (active degradation + dilution); higher = more stable protein
[1] = E. coli NCM3722 delta-clpP, growth: N-lim chemostat, doubling time 6 h
[2] = E. coli NCM3722 delta-hslV, growth: N-lim chemostat, doubling time 6 h
[3] = E. coli NCM3722 delta-smpB, growth: N-lim chemostat, doubling time 6 h
[4] = wild type E. coli NCM3722, growth: C-lim chemostat, doubling time 3 h
[5] = wild type E. coli NCM3722, growth: C-lim chemostat, doubling time 6 h
[6] = wild type E. coli NCM3722, growth: P-lim chemostat, doubling time 6 h
[7] = wild type E. coli NCM3722, growth: P-lim chemostat, doubling time 12 h
[8] = E. coli NCM3722 delta-clpP delta-lon delta-hslV, growth: N-lim chemostat, doubling time 6 h
[9] = E. coli NCM3722 delta-lon, growth: N-lim chemostat, doubling time 6 h
[10] = wild type E. coli NCM3722, growth: C-lim chemostat, doubling time 12 h
[11] = wild type E. coli NCM3722, growth: N-lim chemostat, doubling time 6 h
[12] = wild type E. coli NCM3722, growth: N-lim chemostat, doubling time 12 h

Sequence | total protein half-life in vivo [1] [h] | total protein half-life in vivo [2] [h] | total protein half-life in vivo [3] [h] | total protein half-life in vivo [4] [h] | total protein half-life in vivo [5] [h] | total protein half-life in vivo [6] [h] | total protein half-life in vivo [7] [h] | total protein half-life in vivo [8] [h] | total protein half-life in vivo [9] [h] | total protein half-life in vivo [10] [h] | total protein half-life in vivo [11] [h] | total protein half-life in vivo [12] [h]
MPDAKKQGRSNKAMTFFVCFLAALAGLLFGLDIGVIAGALPFIADEFQITSHTQEWVVSSMMFGAAVGAVGSGWLSFKLGRKKSLMIGAILFVAGSLFSAAAPNVEVLILSRVLLGLAVGVASYTAPLYLSEIAPEKIRGSMISMYQLMITIGILGAYLSDTAFSYTGAWRWMLGVIIIPAILLLIGVFFLPDSPRWFAAKRRFVDAERVLLRLRDTSAEAKRELDEIRESLQVKQSGWALFKENSNFRRAVFLGVLLQVMQQFTGMNVIMYYAPKIFELAGYTNTTEQMWGTVIVGLTNVLATFIAIGLVDRWGRKPTLTLGFLVMAAGMGVLGTMMHIGIHSPSAQYFAIAMLLMFIVGFAMSAGPLIWVLCSEIQPLKGRDFGITCSTATNWIANMIVGATFLTMLNTLGNANTFWVYAALNVLFILLTLWLVPETKHVSLEHIERNLMKGRKLREIGAHD [P0AEP1] | 4.26 | 4.28 | 6.91 | 2.58 | 4.51 | 5.628 ± 0.028 | 9.86 |  |  |  |  | 
MSEIKDVIVQGLWKNNSALVQLLGLCPLLAVTSTATNALGLGLATTLVLTLTNLTISTLRHWTPAEIRIPIYVMIIASVVSAVQMLINAYAFGLYQSLGIFIPLIVTNCIVVGRAEAFAAKKGPALSALDGFSIGMGATCAMFVLGSLREIIGNGTLFDGADALLGSWAKVLRVEIFHTDSPFLLAMLPPGAFIGLGLMLAGKYLIDERMKKRRAEAAAERALPNGETGNV | 3.52 | 2.7 | 4.72 ± 0.73 | 2.72 ± 0.066 |  | 3.64 |  | 2.66 ± 0.39 | 2.38 ± 0.21 | 5.17 | 3.33 | 5.84 ± 1.2
MQKQAELYRGKAKTVYSTENPDLLVLEFRNDTSAGDGARIEQFDRKGMVNNKFNYFIMSKLAEAGIPTQMERLLSDTECLVKKLDMVPVECVVRNRAAGSLVKRLGIEEGIELNPPLFDLFLKNDAMHDPMVNESYCETFGWVSKENLARMKELTYKANDVLKKLFDDAGLILVDFKLEFGLYKGEVVLGDEFSPDGSRLWDKETLEKMDKDRFRQSLGGLIEAYEAVARRLGVQLD [P0A7D7] | 5.09 ± 0.82 | 4.79 ± 0.36 | 4.74 ± 0.15 | 3.26 ± 0.21 | 5.98 ± 0.26 | 5.28 ± 0.41 | 11.8 ± 0.46 | 4.82 ± 0.52 | 5.32 ± 0.32 | 10.8 ± 0.71 | 4.61 ± 0.12 | 8 ± 0.35
MFQLSVQDIHPGEKAGDKEEAIRQVAAALVQAGNVAEGYVNGMLAREQQTSTFLGNGIAIPHGTTDTRDQVLKTGVQVFQFPEGVTWGDGQVAYVAIGIAASSDEHLGLLRQLTHVLSDDSVAEQLKSATTAEELRALLMGEKQSEQLKLDNEMLTLDIVASDLLTLQALNAARLKEAGAVDATFVTKAINEQPLNLGQGIWLSDSAEGNLRSAIAVSRAANAFDVDGETAAMLVSVAMNDDQPIAVLKRLADLLLDNKADRLLKADAATLLALLTSDDAPTDDVLSAEFVVRNEHGLHARPGTMLVNTIKQFNSDITVTNLDGTGKPANGRSLMKVVALGVKKGHRLRFTAQGADAEQALKAIGDAIAAGLGEGA | 5.64 ± 0.69 | 5.85 ± 0.086 | 5.94 ± 0.085 | 2.96 ± 0.13 | 5.74 ± 0.56 | 5.71 ± 0.078 | 11.97 ± 0.033 | 6.229 ± 0.029 | 6.16 ± 0.26 | 12.3 ± 1.2 | 5.99 ± 0.57 | 
MLKIFNTLTRQKEEFKPIHAGEVGMYVCGITVYDLCHIGHGRTFVAFDVVARYLRFLGYKLKYVRNITDIDDKIIKRANENGESFVAMVDRMIAEMHKDFDALNILRPDMEPRATHHIAEIIELTEQLIAKGHAYVADNGDVMFDVPTDPTYGVLSRQDLDQLQAGARVDVVDDKRNPMDFVLWKMSKEGEPSWPSPWGAGRPGWHIECSAMNCKQLGNHFDIHGGGSDLMFPHHENEIAQSTCAHDGQYVNYWMHSGMVMVDREKMSKSLGNFFTVRDVLKYYDAETVRYFLMSGHYRSQLNYSEENLKQARAALERLYTALRGTDKTVAPAGGEAFEARFIEAMDDDFNTPEAYSVLFDMAREVNRLKAEDMAAANAMASHLRKLSAVLGLLEQEPEAFLQSGAQADDSEVAEIEALIQQRLDARKAKDWAAADAARDRLNEMGIVLEDGPQGTTWRRK | 4.75 ± 0.24 | 4.85 ± 0.22 | 4.97 ± 0.14 | 3.24 ± 0.29 | 5.41 ± 0.088 | 6.14 ± 0.47 | 11.5 ± 0.18 | 5.28 ± 0.8 | 5.1 ± 0.24 | 9.907 ± 0.043 | 4.84 ± 0.17 | 7.97 ± 0.15
MFTGSIVAIVTPMDEKGNVCRASLKKLIDYHVASGTSAIVSVGTTGESATLNHDEHADVVMMTLDLADGRIPVIAGTGANATAEAISLTQRFNDSGIVGCLTVTPYYNRPSQEGLYQHFKAIAEHTDLPQILYNVPSRTGCDLLPETVGRLAKVKNIIGIKEATGNLTRVNQIKELVSDDFVLLSGDDASALDFMQLGGHGVISVTANVAARDMAQMCKLAAEGHFAEARVINQRLMPLHNKLFVEPNPIPVKWACKELGLVATDTLRLPMTPITDSGRETVRAALKHAGLL [P0A6L2] | 3.67 ± 0.84 | 3.03 ± 0.44 | 3.42 ± 0.18 | 3.09 ± 0.099 | 5.47 ± 0.57 | 5.72 ± 0.24 | 11.1 ± 0.94 | 4.22 ± 0.18 | 4.05 ± 0.09 | 11.4 ± 0.21 | 3.43 ± 0.14 | 5.28 ± 0.1
